We go through 1 molecule from paper PMC4824898 (2016).

In the test the target is rabbit skeletal muscle actin (Oryctolagus cuniculus (Rabbit), UniProt P68135). Description: actin co-sedimentation; polymerised (filamentous) actin.

B1: actin-binding domain (ABD) of S. pombe α-actinin (protein)
chain: MQANQWQSVQNRTFTKWFNTKLSSRDLPSVFDLRKDLSDGILLIQLLEIIGDENLGRYNRNPRMRVHRLENVNKALEYIKSKGMPLTNIGPADIVDGNLKLILGLIWTLILRFTIADINEEGLTAKEGLLLWCQRKTANYHPEVDVQDFTRSWTNGLAFCALIHQHRPDLLDYNKLDKKNHRANMQLAFDIAQKSIGIPRLIEVEDVCDVDRPDERSIMTYVAEYFHAFSTLDK
For B1, the binding result is “no binding”.
